To fix the notation:
B1: cr007 (nucleic acid)
guide: GTATAAGAGCTAAGCTGGAAACAGCATAGCAAGTTTAAATAAGGCTAGTCCGTTATCAACTTGAAAAAGTGGCACCGAGTCGGTGCT
modifications: listed as DNA, chemistry not fully specified
B2: cr095 (nucleic acid)
guide: B1 guide with A8T
modifications: listed as DNA, chemistry not fully specified
B3: cr312 (nucleic acid)
guide: B1 guide with A3T, T34G, T61G, A68C
modifications: listed as DNA, chemistry not fully specified
B4: cr320 (nucleic acid)
guide: B1 guide with A3T, A32T, A65G
modifications: listed as DNA, chemistry not fully specified
B5: cr032 (nucleic acid)
guide: B1 guide with T2A, A3T, A5G
modifications: listed as DNA, chemistry not fully specified
B6: cr570 (nucleic acid)
guide: B1 guide with A3T, G33C, A74T, T84A
modifications: listed as DNA, chemistry not fully specified
B7: cr952 (nucleic acid)
guide: B1 guide with A3T, A31T, T49G, T54A
modifications: listed as DNA, chemistry not fully specified
B8: cr711 (nucleic acid)
guide: B1 guide with A3T, T34G, G72C, C86G
modifications: listed as DNA, chemistry not fully specified
B9: cr737 (nucleic acid)
guide: B1 guide with A3T, C75G, C76G, G77C, A78T, C81G, G83C
modifications: listed as DNA, chemistry not fully specified
B10: cr641 (nucleic acid)
guide: B1 guide with A3T, T34G
modifications: listed as DNA, chemistry not fully specified
B11: cr616 (nucleic acid)
guide: B1 guide with A3T, C60G, T61A, A68T, G69C
modifications: listed as DNA, chemistry not fully specified
B12: cr085 (nucleic acid)
guide: B1 guide with A3T, A5T, A6T
modifications: listed as DNA, chemistry not fully specified
B13: cr574 (nucleic acid)
guide: B1 guide with A3T, A37C
modifications: listed as DNA, chemistry not fully specified
B14: cr571 (nucleic acid)
guide: B1 guide with A3T, T34G, T62C, A67G
modifications: listed as DNA, chemistry not fully specified
B15: cr454 (nucleic acid)
guide: B1 guide with A3T, G43T, C51A, A59C, T70G, C73T, G85A
modifications: listed as DNA, chemistry not fully specified
B16: cr933 (nucleic acid)
guide: B1 guide with A3T, T34G, G72T, C86A
modifications: listed as DNA, chemistry not fully specified
B17: cr958 (nucleic acid)
guide: B1 guide with A3T, G33C, C76T, G82A
modifications: listed as DNA, chemistry not fully specified
B18: cr716 (nucleic acid)
guide: B1 guide with A3T, A31C, G33T
modifications: listed as DNA, chemistry not fully specified
B19: cr378 (nucleic acid)
guide: B1 guide with A3T, A41G
modifications: listed as DNA, chemistry not fully specified
B20: cr357 (nucleic acid)
guide: B1 guide with A3T, T34G, A74T, T84A
modifications: listed as DNA, chemistry not fully specified
B21: cr757 (nucleic acid)
guide: B1 guide with A3T, G33C, T62A, A67T
modifications: listed as DNA, chemistry not fully specified
B22: cr988 (nucleic acid)
guide: B1 guide with A3T, G33C, C60G, G69C
modifications: listed as DNA, chemistry not fully specified
B23: cr313 (nucleic acid)
guide: B1 guide with A3T, C73G, A74T, C75G, C76G, G83C, G85C
modifications: listed as DNA, chemistry not fully specified
B24: cr301 (nucleic acid)
guide: B1 guide with A3T, G33C, G79T
modifications: listed as DNA, chemistry not fully specified
B25: cr593 (nucleic acid)
guide: B1 guide with A3T, A59C, T70G
modifications: listed as DNA, chemistry not fully specified
B26: cr830 (nucleic acid)
guide: B1 guide with A3T, T49G, G72T
modifications: listed as DNA, chemistry not fully specified
B27: cr048 (nucleic acid)
guide: B1 guide with G1T, A3T, T4C
modifications: listed as DNA, chemistry not fully specified
B28: cr880 (nucleic acid)
guide: B1 guide with A3T, T34G, C75T, G83A
modifications: listed as DNA, chemistry not fully specified
B29: cr410 (nucleic acid)
guide: B1 guide with A3T, A59G, A65G, T70C
modifications: listed as DNA, chemistry not fully specified
B30: cr627 (nucleic acid)
guide: B1 guide with A3T, G43T, C51A, A65G
modifications: listed as DNA, chemistry not fully specified
B31: cr986 (nucleic acid)
guide: B1 guide with A3T, T49G
modifications: listed as DNA, chemistry not fully specified
B32: cr009 (nucleic acid)
guide: B1 guide with A3G
modifications: listed as DNA, chemistry not fully specified
B33: cr638 (nucleic acid)
guide: B1 guide with A3T, T34C, C45G, G48C
modifications: listed as DNA, chemistry not fully specified
B34: cr010 (nucleic acid)
guide: B1 guide with A3T, T4A
modifications: listed as DNA, chemistry not fully specified
B35: cr096 (nucleic acid)
guide: B1 guide with A3T, A5G, A6T
modifications: listed as DNA, chemistry not fully specified
B36: cr012 (nucleic acid)
guide: B1 guide with A3T, T4G
modifications: listed as DNA, chemistry not fully specified
B37: cr151 (nucleic acid)
guide: B1 guide with A3T, G33C, T53G
modifications: listed as DNA, chemistry not fully specified
B38: cr745 (nucleic acid)
guide: B1 guide with A3T, G43A
modifications: listed as DNA, chemistry not fully specified
B39: cr581 (nucleic acid)
guide: B1 guide with A3T, A37T
modifications: listed as DNA, chemistry not fully specified

Where a chain is given by its changes, count along the chain named.

The data set relates to K562 CRISPRi cells. Kind of data set: Constant region variant library pooled growth screen, K562. In kind it is cell-based, human. The conditions noted are these: sgRNA constant region variants; activity relative to the original, un-modified constant region cr995. Put shortly: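 Cells were selected with puromycin for 2 days and then kept in RPMI-1640 spinner cultures, with duplicates handled separately. Targeting sequences comprised 3 sgRNAs per essential gene for 10 genes plus six non-targeting controls. Activities were normalized against pairing with the unmodified scaffold.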
B1 returned a Mean relative activity of 0.03285.

B2 registered a Mean relative activity of 0.02974.

In turn, B3 yielded a Mean relative activity of 0.03032.

As for B4, the Mean relative activity was determined as 1.035.

In the case of B5, the Mean relative activity worked out at 0.02646.

Turning to B6, the Mean relative activity worked out at 0.02846.

In turn, B7 came in with a Mean relative activity of 0.02621.

B8 yielded a Mean relative activity of 0.0267.

For the molecule B9, the Mean relative activity stood at 0.02539.

In turn, B10 had a Mean relative activity of 0.02687.

Consider B11, for which the Mean relative activity stood at 1.035.

Molecule B12 registered a Mean relative activity of 0.02666.

Consider B13, for which the Mean relative activity is listed as 0.03217.

The molecule B14 returned a Mean relative activity of 0.03194.

B15: the Mean relative activity was 0.02618.

Consider B16, for which the Mean relative activity was 0.0286.

On to B17, for which the Mean relative activity was 0.0249.

In turn, B18 showed a Mean relative activity of 0.03033.

With B19, the Mean relative activity is given as 0.02893.

B20 had a Mean relative activity of 0.03253.

With B21, the Mean relative activity is 0.02851.

In turn, B22 displayed a Mean relative activity of 0.0305.

B23 displayed a Mean relative activity of 0.03202.

B24: the Mean relative activity stood at 0.03132.

For the molecule B25, the Mean relative activity amounted to 1.035.

The molecule B26 gave a Mean relative activity of 0.02925.

B27 showed a Mean relative activity of 0.02761.

B28: the Mean relative activity was found to be 0.03183.

B29 had a Mean relative activity of 1.034.

In the case of B30, the Mean relative activity stood at 0.02763.

Molecule B31 came in with a Mean relative activity of 0.0258.

With B32, the Mean relative activity came to 0.02783.

B33: the Mean relative activity turned out to be 0.03012.

The molecule B34 registered a Mean relative activity of 0.02976.

In turn, B35 yielded a Mean relative activity of 0.02764.

For the molecule B36, the Mean relative activity turned out to be 0.02769.

B37 gave a Mean relative activity of 0.03186.

The molecule B38 showed a Mean relative activity of 0.02631.

B39: the Mean relative activity is reported as 0.02488.

The values are drawn from US20220259593A1, “CONTROL OF MAMMALIAN GENE DOSAGE USING CRISPR” (The Regents of the University of California, priority 2019, published 2022).
